The record followed here is the supplement of paper PMC11316812.

In one series the test system is MCF7. As to the kind of experiment: percentage of EdU-negative (G0-arrested) nuclei per well, 72 h; higher = more G0 arrest. The conditions noted are these: reference: sequence is the full UniProt precursor, the tested protein was the secreted form or ectodomain.
The next series has as its system hTERT-HMEC. The series is described as above. Conditions: reference: sequence is the full UniProt precursor, the tested protein was the secreted form or ectodomain.
[1] abbreviates: protein concentration 0.0225 µM.
Where [2] appears, read: protein concentration 0.0220325 µM.
Where [3] appears, read: protein concentration 0.220325 µM.
The mark [4] stands for this setting: protein concentration 0.00839 µM.
[5] abbreviates: protein concentration 0.0839 µM.
[6] abbreviates: protein concentration 0.03125 µM.
Setting [7] is: protein concentration 0.3125 µM.
Setting [8] is: protein concentration 0.0257143 µM.
The mark [9] stands for this setting: protein concentration 0.257143 µM.

± gives the standard deviation of the averaged measurements.
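Also: secreted proteins added to cultured cells, EdU pulse at the end, nuclei found by Hoechst imaging, EdU status from nuclear versus surrounding ring intensity ratio, PBS as neutral control.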

Regarding “MAGGRHRRVVGTLHLLLLVAALPWASRGVSPSASAWPEEKNYHQPAILNSSALRQIAEGTSISEMWQNDLQPLLIERYPGSPGSYAARQHIMQRIQRLQADWVLEIDTFLSQTPYGYRSFSNIISTLNPTAKRHLVLACHYDSKYFSHWNNRVFVGATDSAVPCAMMLELARALDKKLLSLKTVSDSKPDLSLQLIFFDGEEAFLHWSPQDSLYGSRHLAAKMASTPHPPGARGTSQLHGMDLLVLLDLIGAPNPTFPNFFPNSARWFERLQAIEHELHELGLLKDHSLEGRYFQNYSYGGVIQDDHIPFLRRGVPVLHLIPSPFPEVWHTMDDNEENLDESTIDNLNKILQVFVLEYLHL”, the “percentage of EdU-negative” value turned out to be 25.8 ± 0.78% in the series with MCF7 (setting [1]), 29.91 ± 0.092% in the series on MCF7 (protein concentration 0.225 µM), 5.21 ± 0.26% in the series on hTERT-HMEC (setting [1]) and 4.97 ± 1.1% with hTERT-HMEC (protein concentration 0.225 µM).
With “MAGLMTIVTSLLFLGVCAHHIIPTGSVVIPSPCCMFFVSKRIPENRVVSYQLSSRSTCLKAGVIFTTKKGQQFCGDPKQEWVQRYMKNLDAKQKKASPRARAVAVKGPVQRYPGNQTTC”, the “percentage of EdU-negative” value was found to be 23.9 ± 1.6% in the series with MCF7 (setting [2]), 24.7 ± 0.47% in the series with MCF7 (setting [3]), 4.96 ± 0.78% with hTERT-HMEC (setting [2]) and 5.694 ± 0.035% in the series with hTERT-HMEC (setting [3]).
On to “MAGLTAAAPRPGVLLLLLSILHPSRPGGVPGAIPGGVPGGVFYPGAGLGALGGGALGPGGKPLKPVPGGLAGAGLGAGLGAFPAVTFPGALVPGGVADAAAAYKAAKAGAGLGGVPGVGGLGVSAGAVVPQPGAGVKPGKVPGVGLPGVYPGGVLPGARFPGVGVLPGVPTGAGVKPKAPGVGGAFAGIPGVGPFGGPQPGVPLGYPIKAPKLPGGYGLPYTTGKLPYGYGPGGVAGAAGKAGYPTGTGVGPQAAAAAAAKAAAKFGAGAAGVLPGVGGAGVPGVPGAIPGIGGIAGVGTPAAAAAAAAAAKAAKYGAAAGLVPGGPGFGPGVVGVPGAGVPGVGVPGAGIPVVPGAGIPGAAVPGVVSPEAAAKAAAKAAKYGARPGVGVGGIPTYGVGAGGFPGFGVGVGGIPGVAGVPGVGGVPGVGGVPGVGISPEAQAAAAAKAAKYGAAGAGVLGGLVPGAPGAVPGVPGTGGVPGVGTPAAAAAKAAAKAAQFGLVPGVGVAPGVGVAPGVGVAPGVGLAPGVGVAPGVGVAPGVGVAPGIGPGGVAAAAKSAAKVAAKAQLRAAAGLGAGIPGLGVGVGVPGLGVGAGVPGLGVGAGVPGFGAGADEGVRRSLSPELREGDPSSSQHLPSTPSSPRVPGALAAAKAAKYGAAVPGVLGGLGALGGVGIPGGVVGAGPAAAAAAAKAAAKAAQFGLVGAAGLGGLGVGGLGVPGVGGLGGIPPAAAAKAAKYGAAGLGGVLGGAGQFPLGGVAARPGFGLSPIFPGGACLGKACGRKRK [F8WAH6]”, for which the “percentage of EdU-negative” value in the series on MCF7 (setting [4]) was found to be 26.3 ± 0.31%; in the series with MCF7 (setting [5]) it was 25.1 ± 0.57%; in the series with hTERT-HMEC (setting [4]) it was 4.54 ± 0.69%; in the series with hTERT-HMEC (setting [5]) it was 6.95 ± 0.57%.
As for “MAGPATQSPMKLMALQLLLWHSALWTVQEATPLGPASSLPQSFLLKCLEQVRKIQGDGAALQEKLVSECATYKLCHPEELVLLGHSLGIPWAPLSSCPSQALQLAGCLSQLHSGLFLYQGLLQALEGISPELGPTLDTLQLDVADFATTIWQQMEELGMAPALQPTQGAMPAFASAFQRRAGGVLVASHLQSFLEVSYRVLRHLAQP”, the “percentage of EdU-negative” value came out at 25 ± 0.82% in the series on MCF7 (setting [6]), 27.5 ± 0.74% in the series with MCF7 (setting [7]), 5.19 ± 0.94% in the series on hTERT-HMEC (setting [6]) and 9.86 ± 1.2% in the series on hTERT-HMEC (setting [7]).
The corresponding values for “MAGPLRAPLLLLAILAVALAVSPAAGSSPGKPPRLVGGPMDASVEEEGVRRALDFAVGEYNKASNDMYHSRALQVVRARKQIVAGVNYFLDVELGRTTCTKTQPNLDNCPFHDQPHLKRKAFCSFQIYAVPWQGTMTLSKSTCQDA” are 26.2 ± 1.3%, 26.6 ± 2.9%, 5.05 ± 0.076% and 5.7 ± 0.21%.
For the sequence “MAGPPRLLLLPLLLALARGLPGALAAQEVQQSPHCTTVPVGASVNITCSTSGGLRGIYLRQLGPQPQDIIYYEDGVVPTTDRRFRGRIDFSGSQDNLTITMHRLQLSDTGTYTCQAITEVNVYGSGTLVLVTEEQSQGWHRCSDAPPRASALPAPPTGSALPDPQTASALPDPPAASALPAALAVISFLLGLGLGVACVLARTQIKKLCSWRDKNSAACVVYEDMSHSRCNTLSSPNQYQ”, the “percentage of EdU-negative” value in the series on MCF7 (setting [1]) turned out to be 25.1 ± 0.98%; in the series with MCF7 (protein concentration 0.225 µM) it was 24.68 ± 0.088%; in the series on hTERT-HMEC (setting [1]) it was 5.29 ± 0.21%; in the series on hTERT-HMEC (protein concentration 0.225 µM), 4.88 ± 0.12%.
For “MAGPWTFTLLCGLLAATLIQATLSPTAVLILGPKVIKEKLTQELKDHNATSILQQLPLLSAMREKPAGGIPVLGSLVNTVLKHIIWLKVITANILQLQVKPSANDQELLVKIPLDMVAGFNTPLVKTIVEFHMTTEAQATIRMDTSASGPTRLVLSDCATSHGSLRIQLLHKLSFLVNALAKQVMNLLVPSLPNLVKNQLCPVIEASFNGMYADLLQLVKVPISLSIDRLEFDLLYPAIKGDTIQLYLGAKLLDSQGKVTKWFNNSAASLTMPTLDNIPFSLIVSQDVVKAAVAAVLSPEEFMVLLDSVLPESAHRLKSSIGLINEKAADKLGSTQIVKILTQDTPEFFIDQGHAKVAQLIVLEVFPSSEALRPLFTLGIEASSEAQFYTKGDQLILNLNNISSDRIQLMNSGIGWFQPDVLKNIITEIIHSILLPNQNGKLRSGVPVSLVKALGFEAAESSLTKDALVLTPASLWKPSSPVSQ [Q8TDL5]” the same measures were 25.5 ± 0.91%, 30.5 ± 0.65%, 5.17 ± 0.22% and 8.84 ± 0.099%.
The corresponding values for “MAGRLLGKALAAVSLSLALASVTIRSSRCRGIQAFRNSFSSSWFHLNTNVMSGSNGSKENSHNKARTSPYPGSKVERSQVPNEKVGWLVEWQDYKPVEYTAVSVLAGPRWADPQISESNFSPKFNEKDGHVERKSKNGLYEIENGRPRNPAGRTGLVGRGLLGRWGPNHAADPIITRWKRDSSGNKIMHPVSGKHILQFVAIKRKDCGEWAIPGGMVDPGEKISATLKREFGEEALNSLQKTSAEKREIEEKLHKLFSQDHLVIYKGYVDDPRNTDNAWMETEAVNYHDETGEIMDNLMLEAGDDAGKVKWVDINDKLKLYASHSQFIKLVAEKRDAHWSEDSEADCHAL [Q9BW91]” are 26.4 ± 1.5%, 26.1 ± 0.32%, 4.99 ± 0.81% and 5.67 ± 0.54%.
“MAGSPTCLTLIYILWQLTGSAASGPVKELVGSVGGAVTFPLKSKVKQVDSIVWTFNTTPLVTIQPEGGTIIVTQNRNRERVDFPDGGYSLKLSKLKKNDSGIYYVGIYSSSLQQPSTQEYVLHVYEHLSKPKVTMGLQSNKNGTCVTNLTCCMEHGEEDVIYTWKALGQAANESHNGSILPISWRWGESDMTFICVARNPVSRNFSSPILARKLCEGAADDPDSSMVLLCLLLVPLLLSLFVLGLFLWFLKRERQEEYIEEKKRVDICRETPNICPHSGENTEYDTIPHTNRTILKEDPANTVYSTVEIPKKMENPHSLLTMPDTPRLFAYENVI [Q9NQ25]”: the “percentage of EdU-negative” value with MCF7 (setting [1]) is 27.18 ± 0.048%; in the series with MCF7 (protein concentration 0.225 µM), 27.7 ± 1.3%; in the series with hTERT-HMEC (setting [1]) it was 5 ± 0.45%; with hTERT-HMEC (protein concentration 0.225 µM), 6.3 ± 0.74%.
For “MAHRPPSPALASVLLALLLSGAARAAEIVGGHEAQPHSRPYMASLQMRGNPGSHFCGGTLIHPSFVLTAAHCLRDIPQRLVNVVLGAHNVRTQEPTQQHFSVAQVFLNNYDAENKLNDVLLIQLSSPANLSASVATVQLPQQDQPVPHGTQCLAMGWGRVGAHDPPAQVLQELNVTVVTFFCRPHNICTFVPRRKAGICFGDSGGPLICDGIIQGIDSFVIWGCATRLFPDFFTRVALYVDWIRSTLRRVEAKGRP” the same measures were 25.4 ± 0.57%, 28.984 ± 0.026%, 4.55 ± 0.18% and 4.49 ± 0.19%.
Turning to “MAILMLSLQLILLLIPSISHEAHKTSLSSWKHDQDWANVSNMTFSNGKLRVKGIYYRNADICSRHRVTSAGLTLQDLQLWCNLRSVARGQIPSTL [Q6UY13]”, the “percentage of EdU-negative” value in the series on MCF7 (setting [1]) was 26.9 ± 1.6%; in the series with MCF7 (protein concentration 0.225 µM) it was 27.81 ± 0.22%; in the series with hTERT-HMEC (setting [1]), 4.87 ± 0.78%; in the series on hTERT-HMEC (protein concentration 0.225 µM), 5.92 ± 0.39%.
Turning to “MAKDFQDIQQLSSEENDHPFHQGEGPGTRRLNPRRGNPFLKGPPPAQPLAQRLCSMVCFSLLALSFNILLLVVICVTGSQSEGHGGAQLQAELRSLKEAFSNFSSSTLTEVQAISTHGGSVGDKITSLGAKLEKQQQDLKADHDALLFHLKHFPVDLRFVACQMELLHSNGSQRTCCPVNWVEHQGSCYWFSHSGKAWAEAEKYCQLENAHLVVINSWEEQKFIVQHTNPFNTWIGLTDSDGSWKWVDGTDYRHNYKNWAVTQPDNWHGHELGGSEDCVEVQPDGRWNDDFCLQVYRWVCEKRRNATGEVA”, the “percentage of EdU-negative” value in the series on MCF7 (setting [8]) is 27 ± 1.8%; in the series with MCF7 (setting [9]), 25.3 ± 2.7%; with hTERT-HMEC (setting [8]), 4.62 ± 0.061%; with hTERT-HMEC (setting [9]) it was 5.93 ± 0.22%.
